# Substitutions are numbered along the chain they refer to.
# B1: H0610-G1dh/none-Hi-Kn010G3/L0132-k0 (antibody, V domains shown)
# VH: QVQLVQSGAEVKKPGASVKVSCKASGYTFTDYEMHWIRQPPGQGLEWIGAIDGKTPDTAYSQKFKGRVTLTADKSTSTAYMELSSLTSEDTAVYYCTRFYSYTYWGQGTLVTVSS
# VL: DIVMTQSPLSLPVTPGEPASISCRSSQSLVHSNRNTYLHWYQQKPGQAPRLLIYKVSNRVSGVPDRFSGSGSGTDFTLKISRVEAEDVGVYYCGQGTQVPYTFGQGTKLEIK
# notes: one-arm
# B2: H0610-G1dh/none-Hi-Kn010G3/L0223-k0 (antibody, V domains shown)
# VH: B1 VH
# VL: B1 VL with L29P, L38I, V60L, G94Y
# notes: one-arm
# B3: H0610-G1dh/none-Hi-Kn010G3/L0140-k0 (antibody, V domains shown)
# VH: B1 VH
# VL: B1 VL with V60F, S61L
# notes: one-arm
# B4: H0610-G1dh/none-Hi-Kn010G3/L0215-k0 (antibody, V domains shown)
# VH: B1 VH
# VL: B1 VL with S28P, L29P, L38I, V60F
# notes: one-arm
# B5: H0610-G1dh/none-Hi-Kn010G3/L0200-k0 (antibody, V domains shown)
# VH: B1 VH
# VL: B1 VL with S25P, L29P, V60F
# notes: one-arm
# B6: H0610-G1dh/none-Hi-Kn010G3/L0231-k0 (antibody, V domains shown)
# VH: B1 VH
# VL: B1 VL with L29P, L38I, V60F, G94Y, V99W
# notes: one-arm
# B7: H0610-G1dh/none-Hi-Kn010G3/L0216-k0 (antibody, V domains shown)
# VH: B1 VH
# VL: B1 VL with S28P, V60F, S61R
# notes: one-arm
# B8: H0610-G1dh/none-Hi-Kn010G3/L0167-k0 (antibody, V domains shown)
# VH: B1 VH
# VL: B1 VL with V60F, G96S
# notes: one-arm
# B9: H0610-G1dh/none-Hi-Kn010G3/L0160-k0 (antibody, V domains shown)
# VH: B1 VH
# VL: B1 VL with V60F, G94T
# notes: one-arm
# B10: H0610-G1dh/none-Hi-Kn010G3/L0139-k0 (antibody, V domains shown)
# VH: B1 VH
# VL: B1 VL with V60F, S61I
# notes: one-arm
# B11: H0610-G1dh/none-Hi-Kn010G3/L0213-k0 (antibody, V domains shown)
# VH: B1 VH
# VL: B1 VL with L29P, L38I, V60F, S61R
# notes: one-arm
# B12: H0610-G1dh/none-Hi-Kn010G3/L0173-k0 (antibody, V domains shown)
# VH: B1 VH
# VL: B1 VL with V60F, V99F
# notes: one-arm
# B13: H0610-G1dh/none-Hi-Kn010G3/L0151-k0 (antibody, V domains shown)
# VH: B1 VH
# VL: B1 VL with V60F, G94E
# notes: one-arm
# B14: H0610-G1dh/none-Hi-Kn010G3/L0168-k0 (antibody, V domains shown)
# VH: B1 VH
# VL: B1 VL with V60F, G96T
# notes: one-arm
# B15: H0610-G1dh/none-Hi-Kn010G3/L0143-k0 (antibody, V domains shown)
# VH: B1 VH
# VL: B1 VL with V60F, S61P
# notes: one-arm
# B16: H0610-G1dh/none-Hi-Kn010G3/L0147-k0 (antibody, V domains shown)
# VH: B1 VH
# VL: B1 VL with V60F, S61V
# notes: one-arm
# B17: H0610-G1dh/none-Hi-Kn010G3/L0214-k0 (antibody, V domains shown)
# VH: B1 VH
# VL: B1 VL with S28P, L29P, V60F, S61R
# notes: one-arm
# B18: H0610-G1dh/none-Hi-Kn010G3/L0202-k0 (antibody, V domains shown)
# VH: B1 VH
# VL: B1 VL with L29P, N35W, V60F
# notes: one-arm
# B19: H0610-G1dh/none-Hi-Kn010G3/L0163-k0 (antibody, V domains shown)
# VH: B1 VH
# VL: B1 VL with V60F, G94Y
# notes: one-arm
# B20: H0610-G1dh/none-Hi-Kn010G3/L0217-k0 (antibody, V domains shown)
# VH: B1 VH
# VL: B1 VL with S25P, V60F, S61R
# notes: one-arm
# B21: H0610-G1dh/none-Hi-Kn010G3/L0224-k0 (antibody, V domains shown)
# VH: B1 VH
# VL: B1 VL with L29P, L38I, V60F, S61P, G94Y
# notes: one-arm
# B22: H0610-G1dh/none-Hi-Kn010G3/L0161-k0 (antibody, V domains shown)
# VH: B1 VH
# VL: B1 VL with V60F, G94V
# notes: one-arm
# B23: H0610-G1dh/none-Hi-Kn010G3/L0138-k0 (antibody, V domains shown)
# VH: B1 VH
# VL: B1 VL with V60F, S61H
# notes: one-arm
# B24: H0610-G1dh/none-Hi-Kn010G3/L0155-k0 (antibody, V domains shown)
# VH: B1 VH
# VL: B1 VL with V60F, G94L
# notes: one-arm
# B25: H0610-G1dh/none-Hi-Kn010G3/L0219-k0 (antibody, V domains shown)
# VH: B1 VH
# VL: B1 VL with L38I, V60F, S61R
# notes: one-arm
# B26: H0610-G1dh/none-Hi-Kn010G3/L0218-k0 (antibody, V domains shown)
# VH: B1 VH
# VL: B1 VL with V60F, S61R, G94Y
# notes: one-arm
# B27: H0610-G1dh/none-Hi-Kn010G3/L0228-k0 (antibody, V domains shown)
# VH: B1 VH
# VL: B1 VL with L29P, L38I, V60F, G94V
# notes: one-arm
# B28: H0610-G1dh/none-Hi-Kn010G3/L0145-k0 (antibody, V domains shown)
# VH: B1 VH
# VL: B1 VL with V60F, S61R
# notes: one-arm
# B29: H0610-G1dh/none-Hi-Kn010G3/L0180-k0 (antibody, V domains shown)
# VH: B1 VH
# VL: B1 VL with V60F, V99N
# notes: one-arm
# B30: H0610-G1dh/none-Hi-Kn010G3/L0149-k0 (antibody, V domains shown)
# VH: B1 VH
# VL: B1 VL with V60F, G94A
# notes: one-arm
# B31: H0610-G1dh/none-Hi-Kn010G3/L0144-k0 (antibody, V domains shown)
# VH: B1 VH
# VL: B1 VL with V60F, S61Q
# notes: one-arm
# B32: H0610-G1dh/none-Hi-Kn010G3/L0226-k0 (antibody, V domains shown)
# VH: B1 VH
# VL: B1 VL with L29P, L38I, V60F, G94I
# notes: one-arm
# B33: H0610-G1dh/none-Hi-Kn010G3/L0136-k0 (antibody, V domains shown)
# VH: B1 VH
# VL: B1 VL with V60F, S61F
# notes: one-arm
# B34: H0610-G1dh/none-Hi-Kn010G3/L0227-k0 (antibody, V domains shown)
# VH: B1 VH
# VL: B1 VL with L29P, L38I, V60F, G94L
# notes: one-arm
# B35: H0610-G1dh/none-Hi-Kn010G3/L0220-k0 (antibody, V domains shown)
# VH: B1 VH
# VL: B1 VL with S28P, V60F, S61R, G94Y
# notes: one-arm
# B36: H0610-G1dh/none-Hi-Kn010G3/L0148-k0 (antibody, V domains shown)
# VH: B1 VH
# VL: B1 VL with V60F, S61W
# notes: one-arm
# B37: H0610-G1dh/none-Hi-Kn010G3/L0205-k0 (antibody, V domains shown)
# VH: B1 VH
# VL: B1 VL with L29P, V60F, S61W
# notes: one-arm
# B38: H0610-G1dh/none-Hi-Kn010G3/L0181-k0 (antibody, V domains shown)
# VH: B1 VH
# VL: B1 VL with V60F, V99P
# notes: one-arm
# B39: H0610-G1dh/none-Hi-Kn010G3/L0134-k0 (antibody, V domains shown)
# VH: B1 VH
# VL: B1 VL with V60Y
# notes: one-arm
# B40: H0610-G1dh/none-Hi-Kn010G3/L0175-k0 (antibody, V domains shown)
# VH: B1 VH
# VL: B1 VL with V60F, V99H
# notes: one-arm
# B41: H0610-G1dh/none-Hi-Kn010G3/L0154-k0 (antibody, V domains shown)
# VH: B1 VH
# VL: B1 VL with V60F, G94I
# notes: one-arm
# B42: H0610-G1dh/none-Hi-Kn010G3/L0187-k0 (antibody, V domains shown)
# VH: B1 VH
# VL: B1 VL with V60F, V99Y
# notes: one-arm
# B43: H0610-G1dh/none-Hi-Kn010G3/L0152-k0 (antibody, V domains shown)
# VH: B1 VH
# VL: B1 VL with V60F, G94F
# notes: one-arm
# B44: H0610-G1dh/none-Hi-Kn010G3/L0141-k0 (antibody, V domains shown)
# VH: B1 VH
# VL: B1 VL with V60F, S61M
# notes: one-arm
# B45: H0610-G1dh/none-Hi-Kn010G3/L0229-k0 (antibody, V domains shown)
# VH: B1 VH
# VL: B1 VL with L29P, L38I, V60F, G94Y, G96S
# notes: one-arm
# B46: H0610-G1dh/none-Hi-Kn010G3/L0137-k0 (antibody, V domains shown)
# VH: B1 VH
# VL: B1 VL with V60F, S61G
# notes: one-arm
# B47: H0610-G1dh/none-Hi-Kn010G3/L0157-k0 (antibody, V domains shown)
# VH: B1 VH
# VL: B1 VL with V60F, G94N
# notes: one-arm
# B48: H0610-G1dh/none-Hi-Kn010G3/L0230-k0 (antibody, V domains shown)
# VH: B1 VH
# VL: B1 VL with L29P, L38I, V60F, G94Y, G96T
# notes: one-arm
# B49: H0610-G1dh/none-Hi-Kn010G3/L0186-k0 (antibody, V domains shown)
# VH: B1 VH
# VL: B1 VL with V60F, V99W
# notes: one-arm
# Target: T1, human GPC3 (human, UniProt P51654 25-563)
# T1 construct: range 25-563; soluble analyte; also called soluble human GPC3; glypican 3
# T1 sequence (P51654 25-563 limits assumed): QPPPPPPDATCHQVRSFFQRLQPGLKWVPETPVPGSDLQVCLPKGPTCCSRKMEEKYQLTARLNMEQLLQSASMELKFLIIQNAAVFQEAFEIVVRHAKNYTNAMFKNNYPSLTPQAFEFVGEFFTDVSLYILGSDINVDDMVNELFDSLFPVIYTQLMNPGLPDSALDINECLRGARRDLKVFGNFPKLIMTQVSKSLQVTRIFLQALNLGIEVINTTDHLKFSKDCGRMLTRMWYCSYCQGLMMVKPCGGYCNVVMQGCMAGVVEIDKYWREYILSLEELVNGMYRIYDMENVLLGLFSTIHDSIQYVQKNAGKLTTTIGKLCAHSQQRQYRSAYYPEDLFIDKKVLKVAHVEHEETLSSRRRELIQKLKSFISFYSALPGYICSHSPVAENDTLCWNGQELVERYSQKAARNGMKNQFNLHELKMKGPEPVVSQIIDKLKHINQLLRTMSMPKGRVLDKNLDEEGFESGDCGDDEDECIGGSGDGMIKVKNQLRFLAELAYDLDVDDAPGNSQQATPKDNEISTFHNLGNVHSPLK
# Experiment: SPR
row,Kd [nM],Binder
1,5.65,B1
2,0.475,B2
3,3.38,B3
4,1.64,B4
5,1.04,B5
6,0.589,B6
7,1.86,B7
8,0.211,B8
9,2.12,B9
10,4.78,B10
11,1.25,B11
12,2.83,B12
13,1.25,B13
14,0.699,B14
15,0.573,B15
16,4.38,B16
17,0.657,B17
18,1.22,B18
19,3.38,B19
20,1.79,B20
21,0.243,B21
22,0.973,B22
23,5.24,B23
24,1.28,B24
25,2.28,B25

row,Kd [nM],Binder
1,1.99,B26
2,0.202,B27
3,2.66,B28
4,4.48,B29
5,2.16,B30
6,4.84,B31
7,0.093,B32
8,5.04,B33
9,0.408,B34
10,1.36,B35
11,3.28,B36
12,1.01,B37
13,3.51,B38
14,2.53,B39
15,3.84,B40
16,1.01,B41
17,4.92,B42
18,2.36,B43
19,3.86,B44
20,1.2,B45
21,5.87,B46
22,2.6,B47
23,4,B48
24,1.08,B49
